Assay results reported in patent EP4471048A1, “PEPTIDE INHIBITORS OF INTERLEUKIN-23 RECEPTOR” (Zealand Pharma A/S, priority 2023, dated 2024).
Where two headings read alike, the source gives them in different places. *1 amine or outer side, *2 acyl side, *3 side chain or, on linkers, in order; H or OH if unused. Bridges are numbered along the chain shown (N, C = ends). [ ]: non-standard residue; d: D form. The star is where a group is joined. 4‑Aminomethyl‑phenylacetyl = 4-aminomethyl-phenylacetyl unit, its amine closes the lactam, O=C(Cc1ccc(CN[*:1])cc1)[*:2]; γDab = iso-Dab: Dab joined to preceding residue by its side-chain amine, O=C([C@H](CCN[*:1])N[*:3])[*:2]; Q(pyrrolidin) = modified Gln, O=C(CC[C@H](N[*:1])C(=O)[*:2])N1CCCC1; Propanoyl(3-(3-pyridyl)) = O=C(CCc1cccnc1)*; Phe(4-Me) = Cc1ccc(C[C@H](N)C(=O)O)cc1; 2Nal = N[C@@H](Cc1ccc2ccccc2c1)C(=O)O; AEF = NCCOc1ccc(C[C@H](N)C(=O)O)cc1; 3Pal = N[C@@H](Cc1cccnc1)C(=O)O; Aad = N[C@@H](CCCC(=O)O)C(=O)O; αMeL = CC(C)C[C@](C)(N)C(=O)O; dOrn = NCCC[C@@H](N)C(=O)O; Dab = NCC[C@H](N)C(=O)O

T1: Nluc-IL23R fusion protein (human, UniProt Q5VWK5 22-629)
T1 construct: range 22-629; Stably expressed in HEK293 cells; also called hIL-23R; human IL-23R; not shown: Nanoluc protein (N1371, Promega) at the N-terminus, after a secretion signal
T1 sequence (looked up): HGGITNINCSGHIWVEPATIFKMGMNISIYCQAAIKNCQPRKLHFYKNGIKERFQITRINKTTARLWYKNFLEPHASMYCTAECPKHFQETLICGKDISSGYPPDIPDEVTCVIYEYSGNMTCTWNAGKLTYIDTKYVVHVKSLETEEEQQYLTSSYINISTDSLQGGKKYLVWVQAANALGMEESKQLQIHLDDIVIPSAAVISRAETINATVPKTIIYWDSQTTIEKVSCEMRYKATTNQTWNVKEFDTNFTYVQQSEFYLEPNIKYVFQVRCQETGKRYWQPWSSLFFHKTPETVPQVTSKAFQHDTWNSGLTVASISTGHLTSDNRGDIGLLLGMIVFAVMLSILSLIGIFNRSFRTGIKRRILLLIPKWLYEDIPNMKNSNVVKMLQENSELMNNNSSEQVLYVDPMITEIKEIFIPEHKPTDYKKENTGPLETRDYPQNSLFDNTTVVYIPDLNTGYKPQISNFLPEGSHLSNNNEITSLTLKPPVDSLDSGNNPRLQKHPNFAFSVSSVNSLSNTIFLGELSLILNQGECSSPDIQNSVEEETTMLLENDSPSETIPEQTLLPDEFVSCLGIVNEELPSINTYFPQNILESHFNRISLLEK

T2: human IL-23R endogenously expressed on DB cells (human, UniProt Q5VWK5 24-629)
T2 sequence (looked up): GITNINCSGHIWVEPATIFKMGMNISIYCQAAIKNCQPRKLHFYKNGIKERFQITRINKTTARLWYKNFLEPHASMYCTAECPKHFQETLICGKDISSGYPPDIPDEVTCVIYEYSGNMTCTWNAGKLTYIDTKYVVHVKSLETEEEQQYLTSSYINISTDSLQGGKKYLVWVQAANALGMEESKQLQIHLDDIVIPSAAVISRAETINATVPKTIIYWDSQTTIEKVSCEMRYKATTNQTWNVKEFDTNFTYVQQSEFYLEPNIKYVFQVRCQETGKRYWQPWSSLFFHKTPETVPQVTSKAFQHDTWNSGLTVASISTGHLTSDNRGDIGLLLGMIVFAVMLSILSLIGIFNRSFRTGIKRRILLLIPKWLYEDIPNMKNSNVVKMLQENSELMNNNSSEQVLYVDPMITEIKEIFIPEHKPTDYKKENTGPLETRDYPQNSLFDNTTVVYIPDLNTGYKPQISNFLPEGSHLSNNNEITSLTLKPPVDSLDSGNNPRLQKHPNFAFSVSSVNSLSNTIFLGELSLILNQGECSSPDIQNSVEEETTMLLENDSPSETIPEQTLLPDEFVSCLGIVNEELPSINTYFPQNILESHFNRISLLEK

B1: Compound 6 (peptide)
peptide: [dOrn]TVWQE[AEF][2Nal][αMeL][Aad][Dab][3Pal]-NH2
modifications: lactam 1-10, N-6
SMILES: CC(C)C[C@]1(C)NC(=O)[C@H](Cc2ccc3ccccc3c2)NC(=O)[C@H](Cc2ccc(OCCN)cc2)NC(=O)[C@@H]2CCC(=O)N[C@H](CCCNC(=O)CCC[C@@H](C(=O)N[C@@H](CCN)C(=O)N[C@@H](Cc3cccnc3)C(N)=O)NC1=O)C(=O)N[C@@H]([C@@H](C)O)C(=O)N[C@@H](C(C)C)C(=O)N[C@@H](Cc1c[nH]c3ccccc13)C(=O)N[C@@H](CCC(N)=O)C(=O)N2
B2: Compound 24 (peptide)
peptide: KTVWQE[Phe(4-Me)][2Nal][αMeL][γDab](Propanoyl(3-(3-pyridyl)))
modifications: lactam 1-C, N-6; also: iso-Dab joined to preceding residue via its side-chain amine
B3: Compound C (peptide)
peptide: XQTWQCXWXENG
modifications: [Ac]-[Abu](16i)QTWQC(16i)[Y(2-aminoethoxy)]W[2-Me-Lys]ENG-[NH2]; (16i) [2,7] thioether bridge (Abu and Cys form a cystathionine)

How the values were obtained:
[1] = target: human IL-23R endogenously expressed on DB cells (human) (UniProt Q5VWK5); experiment: cell-based or functional assay
[2] = target: T1, Nluc-IL23R fusion protein; experiment: BRET competition vs TAMRA-labelled peptide, Nluc-IL23R membranes; Ki by Cheng-Prusoff
[3] = target: T2, human IL-23R endogenously expressed on …; experiment: cell-based or functional assay
[4] = target: T1, Nluc-IL23R fusion protein; experiment: BRET competition vs TAMRA-labelled peptide, Nluc-IL23R membranes
[5] = target: T1, Nluc-IL23R fusion protein; experiment: as above; remark: listed apart in the source

Molecule	EC80 of hIL-23 (phospho-STAT3 in DB cells) [1] [nM]	Ki [2] [nM]	hIL-23 (pSTAT3) antagonist % inhibition [3] [%]	hIL-23 (pSTAT3) antagonist IC50 [3] [nM]	% displacement [4] [%]	IC50 [4] [nM]	% displacement [5] [%]	IC50 [5] [nM]
human IL-23 (from UniProt Q9NPF7 20-189; P29460 23-328) (ligand)	1.7							
[4‑Aminomethyl‑phenylacetyl]SEW[Q(pyrrolidin)][Dab][AEF][2Nal][αMeL]E[Dab]-NH2 (lactam N-10; bridge 3-6; also: (2c) bridge type not defined) [Ref 146]		1.01	98	42	105	1.2		
B1			104	0.22			104	
B2			99	100			96	280
B3			99	13			102	
